Assay [1] has as its target PKR (Homo sapiens) (UniProt P19525). In words: analytical ultracentrifugation. The settings on record: cited from earlier work.
Assay [2] shares this target. The settings on record: cited from earlier work.
In assay [3] the target is phosphorylated monomeric PKR (pPKRm) (human) (UniProt P19525). In words: AUC.

Values joined by “and” are separate entries in the source; they are usually repeats but may differ in a detail not shown here. Equal values may be shown once. Read-outs that look alike come from different tables or passages of the source.

As a reminder, the Kd is the constant that tells how readily two partners part at equilibrium. Regarding PKR (from UniProt P19525), the Kd in the assay with PKR (Homo sapiens) [1] was 950 nM; with PKR (Homo sapiens) [2], 500 µM and 450 µM.
The substance “phosphorylated monomeric PKR (pPKRm) (from UniProt P19525 1-551) (enzyme)” had a Kd in assay [3] of 473 µM.
